Experimental data reported in patent US9273095B2, “Antibiotic peptide and preparation method therefor and application therefor” (priority 2011, dated 2016).
Non-standard residues stand in square brackets, D forms with d. No end group written: not given here.

Columns and labels:
[1] = Circular dichroism (CD) spectroscopy, helical structure; format: physicochemical; settings: 50% trifluoroethanol (TFE), 5° C.
[2] = RP-HPLC temperature profiling: hydrophobicity and self-association; format: physicochemical
Method: Peptides are analyzed on an Agilent 1200 series liquid chromatograph (Little Falls, Del.). Runs are performed on a Zorbax 300 SB-C8 column (150×4.6 mm I.D.; 5 μm particle size, 300 Å pore size) from Agilent Technologies using linear AB gradient (1% acetonitrile/min) and a flow rate of 1 ml/min, where solvent A is 0.05% aqueous TFA, pH 2 and solvent B is 0.05% TFA in acetonitrile.
We further use temperature profiling during RP-HPLC to determine the self-association ability of various analogs of PL-13 (SEQ ID NO: 1) which would occur through interaction of the non-polar faces of these amphipathic peptides α-helices. We use 50% TFE aqueous acetonitrile and hydrophobic conditions in the reversed-phase column (hydrophobic stationary phase and the hydrophobic organic solvent in the mobile phase) since the hydrophobic environment of a reversed-phase column also could induce α-helical structure. Since its introduction, the technique of RP-HPLC temperature profiling has been applied on several types of molecules, including cyclic β-sheet peptides, monomeric α-helices and α-helices that dimerize, as well as α-helices that dimerize to form coiled-coils. Although peptides are eluted from a reversed-phase column mainly by an adsorption/desorption mechanism, even a peptide strongly bound to a hydrophobic stationary phase will partition between the matrix and the mobile phase when the acetonitrile content becomes high enough during gradient elution. In summary, the mechanism is based on four assumptions: (i) at low temperature, just as an amphipathic α-helical peptide is able to dimerize in aqueous solution (through its hydrophobic, non-polar face), it will dimerize in solution during partitioning in reversed-phase chromatography; (ii) at higher temperatures, the monomer-dimer equilibrium favors the monomer as the dimer is disrupted; (iii) at sufficiently high temperatures, only monomer is present in solution; and (iv) peptide is always bound in its monomeric helical form to the hydrophobic stationary phase, i.e., the dimer can only be present in solution and disruption of the dimer is required for rebinding to the RP-HPLC matrix.
([θ]222=−3,950). Since peptide C is a monomeric random coil peptide in both aqueous and hydrophobic media, its retention behavior over the temperature range 5-80° C. represents only general temperature effects on peptide retention behavior, i.e., a linear decrease in peptide retention time with increasing temperature due to greater solute diffusivity and enhanced mass transfer between the stationary and mobile phases at higher temperatures. Thus, after normalization to the retention times of peptide C, the retention behavior of the peptides only represents peptide self-association ability. Note that the higher the PA value, the greater the self-association ability. The order of peptide self-association ability of the three pairs of peptide enantiomers is identical to the order of peptide hydrophobicity. Apart from the decrease in retention time due to the general temperature effects noted above, destruction of the α-helix will also occur with increasing temperature, resulting in reduced retention times as the peptides become increasingly random coils.
The retention time data for the peptides is shown in Table 6 which records retention times at 5° C., the maximal retention times and retention times at 80° C. during the temperature profiling. Temperatures of 5-80° C. are the lower and upper temperature limits of temperature profiling in RP-HPLC, representing polymerization of the peptides at 5° C. and the monomerization of peptides at 80° C. due to denaturation of peptides by high temperature and dissociation of the polymers. The maximal retention times represent the threshold points at which peptides totally transform from polymeric to monomeric form. […]

PL-18 (SEQ ID NO: 1) = test: RP-HPLC temperature profiling 5-80 C, normalised to random coil peptide C; self-association of the peptide with itself
PL-43 (SEQ ID NO: 24) = test: as above
PL-51 (SEQ ID NO: 30) = test: as above

## Ac-ELEKGGLEGEKGGKELEK-amide (Ac-ELEKGGLEGEKGGKELEK-NH2) [reference compound]
[1]
  [θ]222: −3,950
[2]; RP-HPLC temperature profiling, 5° C.
  tR(min) 5° C.: 22.56 min
[2]; RP-HPLC temperature profiling, 80° C.
  tR(min) 80° C.: 19.91 min
[2]; maximal retention time during temperature profiling 5-80° C.
  tR(min) Max: 22.56 min

B1: PL-18 (SEQ ID NO: 1) (peptide)
peptide: Ac-[dF][dK][dK][dL][dK][dK][dL][dF][dS][dK][dL][dW][dN][dW][dK]-NH2
SMILES: CC(=O)N[C@H](Cc1ccccc1)C(=O)N[C@H](CCCCN)C(=O)N[C@H](CCCCN)C(=O)N[C@H](CC(C)C)C(=O)N[C@H](CCCCN)C(=O)N[C@H](CCCCN)C(=O)N[C@H](CC(C)C)C(=O)N[C@H](Cc1ccccc1)C(=O)N[C@H](CO)C(=O)N[C@H](CCCCN)C(=O)N[C@H](CC(C)C)C(=O)N[C@H](Cc1c[nH]c2ccccc12)C(=O)N[C@H](CC(N)=O)C(=O)N[C@H](Cc1c[nH]c2ccccc12)C(=O)N[C@H](CCCCN)C(N)=O
PL-18 (SEQ ID NO: 1)
  PA (self-association parameter): 0.56 min

B2: PL-43 (SEQ ID NO: 24) (peptide)
peptide: [dF][dK][dK][dF][dK][dK][dL][dL][dS][dK][dL][dW][dN][dW][dK]
PL-43 (SEQ ID NO: 24)
  PA (self-association parameter): 1.65 min

B3: PL-51 (SEQ ID NO: 30) (peptide)
peptide: [dL][dF][dK][dK][dL][dK][dK][dL][dF][dS][dK][dL][dW][dN][dW][dK]
PL-51 (SEQ ID NO: 30)
  PA (self-association parameter): 1.63 min
